B1: anti-DPP6 nanobody 2hD1 (VHH)
VHH: QVQLQESGGGLVQPGGSLRLSCAASGYPYGYTFSSYCMRWFRQAPGKDREGVARFERNGLTTYYDDSVKGRFTISQDNVKNTVYLQMNSLKPEDTATYYCAAAPKQLRTCGDYNYWGQGTQVTVSS
B2: anti-DPP6 nanobody 4hD29 (VHH)
VHH: QVQLQESGGGLVQPGGSLRLSCAASGFTFSSNYMTWVRQAPGKGPEWVSGINPDGSSTYYADSVKGRFTISRDNAKNTLYLQMNSLKSEDTALYKCATGAAPRIPTTLRGQGTQVTVSS
B3: anti-DPP6 nanobody 2hD123-A24V (VHH)
VHH: QVQLQESGGGSVQAGGSLRLSCAVSGSSYSRFRMGWFRQVPGKEREGVAAIYRSDGRTYYADSVKGRFTISQDNTKNTVYLQMNSLKPEDTAMYYCAAGAYSSYLMDANFAYWGQGTQVTVSS
B4: anti-DPP6 nanobody 2hD6 (VHH)
VHH: QVQLQESGGGSVQAGGSLRLSCAASSYTYSYSCMAWFRQAPGKERERVASIHTGTGTANYADSAKGRFTISQDIAANTVYLQMNSLKLEDTAMYYCAARPGSAALRCTTDYSKPHDFTYWGQGTQVTVSS

T1 sequence (P42658 117-865 limits assumed): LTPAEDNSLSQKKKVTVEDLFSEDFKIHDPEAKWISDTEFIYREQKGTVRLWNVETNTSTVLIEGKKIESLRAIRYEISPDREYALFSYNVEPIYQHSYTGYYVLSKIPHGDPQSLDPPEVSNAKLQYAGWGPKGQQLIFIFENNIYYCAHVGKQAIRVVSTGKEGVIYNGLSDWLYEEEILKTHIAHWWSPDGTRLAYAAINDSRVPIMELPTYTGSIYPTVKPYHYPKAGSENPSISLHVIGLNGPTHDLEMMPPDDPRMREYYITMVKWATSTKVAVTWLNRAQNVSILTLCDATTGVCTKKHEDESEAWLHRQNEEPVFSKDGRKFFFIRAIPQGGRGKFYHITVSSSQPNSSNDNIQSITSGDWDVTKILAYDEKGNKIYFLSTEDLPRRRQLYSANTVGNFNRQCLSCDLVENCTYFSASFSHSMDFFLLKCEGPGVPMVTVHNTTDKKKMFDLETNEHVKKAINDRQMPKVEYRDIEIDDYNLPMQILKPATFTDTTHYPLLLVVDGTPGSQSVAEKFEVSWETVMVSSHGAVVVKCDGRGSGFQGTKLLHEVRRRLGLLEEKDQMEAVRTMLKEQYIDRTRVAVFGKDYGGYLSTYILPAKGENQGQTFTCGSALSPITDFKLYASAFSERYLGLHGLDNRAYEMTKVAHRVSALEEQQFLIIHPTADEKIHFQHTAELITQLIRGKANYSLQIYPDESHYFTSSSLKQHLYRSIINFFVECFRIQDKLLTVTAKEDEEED

This assay addresses T1, dipeptidyl aminopeptidase-like protein 6 (DPP6), human isoform 1 (human, UniProt P42658 117-865, limits assumed).
T1 construct: also called DPPX; DPP6 L
The experiment in a line: affinity, method not stated (Table 1-4).
The molecule B1 returned a Kd of 69 nM.
Consider B2, for which the Kd amounted to 1.2 nM.
In turn, B3 came in with a Kd of 27.2 nM.
B4 came in with a Kd of 13 nM.

These data come from patent publication US20230381228A1 (University of California, published 2023).
